In patent publication US9446226B2, “Drug-delivering composite structures” (Ramot at Tel-Aviv University Ltd., priority 2005, dated 2016):

Experiments:
[1] = In vitro paclitaxel release from composite fibrous structures; format: physicochemical; settings: PBS 37° C.
Protocol: Cumulative release of paclitaxel from samples of composite fibrous structures was monitored and followed over a time period of four months. Samples of composite structures were immersed in PBS at 37° C. for 112 days. The medium was entirely removed periodically and assayed for drug release, and fresh medium was introduced. The paclitaxel content of each medium sample was determined using Agilent 1100 High Performance Liquid Chromatography (HPLC).

[2] = as obtained from Aldrich; cited from earlier work
[3] = In-vitro HRP release from composite fibrous structures; format: physicochemical
Protocol: Various samples of HRP-containing composite fibrous structures were used to determine the release kinetics of HRP over a time period of 90 days. The HRP release studies were conducted in closed 1 ml glass vessels in which the HRP-containing composite fibrous structures were immersed in 1 ml sterile double-distilled water containing sodium azide as preservative (0.05% w/w) at 37° C. The entire aqueous medium was replaced periodically by fresh medium and HRP content in the removed medium was determined by the micro BCA assay method, by measuring absorbance at 595 nm.
Cumulative HRP release profiles were determined relative to the initial amount of HRP in each of the tested structures, i.e., the amount of HRP released during the incubation period and the residual HPR remaining in the structures. All experiments were performed in triplicate.
Residual protein recovery front composite fibrous structures: Residual protein recovery from spent composite fibrous structure samples used in the abovementioned in-vitro release experiments was conducted according to a previously described method [Jeffery H et al., Pharm. Res., 1993, 10(3), pp 362-368].
Briefly, composite fibrous structures were extracted in 1 ml sodium dodecyl sulfate (SDS)/NaOH 5%/0.1 M solution for 48 hours at 37° C. Following extraction, the HRP concentration was estimated using a micro BCA assay method as described hereinabove. Based on these assays, the exact amount of the HRP loaded in each structure was determined and served for calculating the percentages cited in the assays above.

Row | Compound | paclitaxel released during the first 24 hours ([1]; emulsions containing 2.9% w/w paclitaxel) | paclitaxel released during the first 24 hours ([1]; fibers coated with emulsion containing 7.14% w/w paclitaxel) | burst effect of paclitaxel release during the first days ([1]; standard reference emulsion (17.5% w/v polymer, 1.43% w/w paclitaxel, O:A 2:1), nylon core) | initial enzymatic activity [2] | initial burst of HRP release ([3]; 1% w/w HRP load, O:A 4:1, water with sodium azide, 37° C.) | initial burst of HRP release (mean) ([3]; 5% w/w HRP load, O:A 4:1, water with sodium azide, 37° C.) | active enzyme released during the 90 day experiment ([3]; 5% w/w HRP load, O:A 4:1, 8:1, 16:1, coat-polymer 13%, 15%, 19% w/v, 90 days) | burst effect of HRP release ([3]; O:A 4:1 formulations, 5% w/w HRP load) | burst effect of HRP release ([3]; O:A 8:1, 5% w/w HRP, highest coat-polymer content (19% w/v)) | burst effect of HRP release ([3]; O:A 8:1, 5% w/w HRP, lowest coat-polymer content (13% w/v)) | burst effect of HRP release ([3]; O:A 16:1, 5% w/w HRP, highest coat-polymer content (19% w/v)) | burst effect of HRP release ([3]; O:A 16:1, 5% w/w HRP, lowest coat-polymer content (13% w/v)) | burst effect of HRP release ([3]; O:A 16:1 formulations, 5% w/w HRP load)
1 | CC(=O)O[C@H]1C(=O)[C@@]2(C)[C@H]([C@H](OC(=O)c3ccccc3)[C@]3(O)C[C@H](OC(=O)[C@H](O)[C@@H](NC(=O)c4ccccc4)c4ccccc4)C(C)=C1C3(C)C)[C@]1(OC(C)=O)CO[C@@H]1C[C@@H]2O [paclitaxel, Paclitaxel] | 3% | 7% | less than 3% | – | – | – | – | – | – | – | – | – | –
2 | Horseradish peroxidase [HRP] | – | – | – | 500 U/mg | 20% | 70% | at least 90% | 70-80% | 26% | 66% | 10% | 20% | 10-20%
